Literature values as cited in article PMC8896763.
One block for each substance: values may come before it.

How the values were obtained:
PSGL-1 (Homo sapiens) = PSGL-1 (Homo sapiens) (UniProt Q14242)
CD80 = CD80 (UniProt P33681)
CD48 (Rattus norvegicus) = CD48 (Rattus norvegicus) (UniProt P10252)
CD58 (Homo sapiens) = CD58 (Homo sapiens) (UniProt P19256)
Sequence of UniProt P19256 (P19256 29-215): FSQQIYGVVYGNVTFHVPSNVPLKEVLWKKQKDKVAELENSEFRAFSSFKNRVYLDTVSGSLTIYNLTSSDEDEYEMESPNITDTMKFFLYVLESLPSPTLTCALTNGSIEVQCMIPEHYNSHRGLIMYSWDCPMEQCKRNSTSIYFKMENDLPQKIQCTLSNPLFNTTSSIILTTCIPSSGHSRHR

Sequence of UniProt P10252 (P10252 23-217): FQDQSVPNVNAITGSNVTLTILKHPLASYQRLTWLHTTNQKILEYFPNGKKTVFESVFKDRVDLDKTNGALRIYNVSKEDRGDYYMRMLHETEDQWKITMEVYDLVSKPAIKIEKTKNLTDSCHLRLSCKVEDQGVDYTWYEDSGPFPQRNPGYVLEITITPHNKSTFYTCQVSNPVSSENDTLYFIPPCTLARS
Sequence of UniProt P33681 (P33681 35-242): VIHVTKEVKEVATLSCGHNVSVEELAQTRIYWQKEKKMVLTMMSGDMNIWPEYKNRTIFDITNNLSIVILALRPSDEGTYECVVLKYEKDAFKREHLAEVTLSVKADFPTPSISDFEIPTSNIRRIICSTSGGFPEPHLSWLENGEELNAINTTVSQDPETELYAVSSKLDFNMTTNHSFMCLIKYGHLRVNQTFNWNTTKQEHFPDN
Sequence of UniProt Q14242 (Q14242 42-320): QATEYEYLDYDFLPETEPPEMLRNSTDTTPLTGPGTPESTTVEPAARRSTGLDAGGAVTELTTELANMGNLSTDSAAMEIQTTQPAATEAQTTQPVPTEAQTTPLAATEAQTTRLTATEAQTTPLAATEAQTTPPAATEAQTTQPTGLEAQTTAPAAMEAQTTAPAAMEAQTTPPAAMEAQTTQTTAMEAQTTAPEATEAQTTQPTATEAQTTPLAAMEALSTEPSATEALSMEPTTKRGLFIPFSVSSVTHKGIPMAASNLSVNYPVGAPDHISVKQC

Kd (PSGL-1 (Homo sapiens)): 0.3 µM
Substance: P-selectin (from UniProt P16109)

Kd (CD80): 2 µM
Substance: CD28 (from UniProt P10747)

Kd (CD48 (Rattus norvegicus)): 60 µM
Substance: CD2 (from UniProt P08921)

Kd (CD58 (Homo sapiens)): 10 µM
Substance: CD2 (from UniProt P06729)
